US20240052052A1 (ANTENGENE BIOLOGICS, published 2024)

Assays:
[1] = target: T1, human CD24 (human, UniProt P25063 27-59, heavily glycosylated, GPI-anchored (as described in the background)); assay: FACS, 5637 cells
T1 construct: whole, on cells; Target of all cell-based FACS assays; also called hCD24; Cluster of differentiation 24
T1 chain (looked up): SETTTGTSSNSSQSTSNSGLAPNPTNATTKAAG
Procedure: (§1) Screening & Expansion: The subcloning plates were screened by Acumen assay and the subclones with good binding ability were expanded to 24-wells for confirmation tests. The specificity and cross-reactivity of these subclones were confirmed with FACs analysis. […] Fluorescent dye-conjugated secondary antibody was used to detect the binding of the primary antibody with the cells. Median fluorescence intensity (MFI) was measured by FACs analysis.

[2] = target: T1, human CD24; assay: FACS, MCF7 cells
Procedure: as §1

[3] = target: T1, human CD24; assay: FACS, 5637 cells
Procedure: (§2) Sequences of some of antibodies from Table 1 were selected to generate and produce human IgG4 chimeric antibodies. […] The protocol for FACs analysis is described as follows: [0536] a. Digested cells using TrypLE™ Express Enzyme (IX); Centrifuged the harvested cells at 400 g for 5 min and discarding the supernatant. [0537] b. Washed the cells 2 times with cold FACS buffer by centrifuging at 400 g for 5 min and discarding the supernatant. [0538] c. […] Incubate at […] for 1 h. [0539] d. Washed the cells twice by using the condition in step b. Resuspended the cells with 100 μl/well diluted 2nd antibody, incubated at 4 degree for 1 h in the dark. [0540] e. Washed the cells twice by using the condition in step b. Resuspended the cells with 100 μl/well cold FACS buffer. Kept the cells in dark for FACS analysis.

[4] = target: T1, human CD24; assay: FACS, MCF7 cells
Procedure: as §2

[5] = target: T1, human CD24; assay: FACS, 5637 cells
[6] = target: T1, human CD24; assay: FACS, MCF7 cells
[7] = target: T1, human CD24; assay: FACS, A549 cells
Procedure: as §2

[8] = target: T1, human CD24; assay: FACS, Nalm1 cells
Procedure: as §1

[9] = target: T1, human CD24; assay: FACS, H1975 cells
Procedure: as §1

[10] = target: T1, human CD24; assay: FACS, Nalm1 cells
Procedure: as §2

[11] = target: T1, human CD24; assay: FACS, Nalm1 cells
[12] = target: T1, human CD24; assay: FACS, H1975 cells
Procedure: as §2

[13] = target: T1, human CD24; assay: FACS, HT-29 cells
Procedure: as §2

[14] = target: T1, human CD24; assay: FACS, 293F-hCD24 cells
Procedure: as §1

[15] = target: T1, human CD24; assay: FACS, 293F-hCD24 cells
Procedure: as §2

[16] = target: T1, human CD24; assay: FACS, MDA-MB-468 cells
Procedure: as §2

[17] = target: T1, human CD24; assay: FACS, 293F-hCD24 cells
[18] = target: T1, human CD24; assay: FACS, MDA-MB-468 cells
[19] = target: T1, human CD24; assay: cell-based or functional assay
[20] = target: T1, human CD24; assay: FACS, CHOK1-hCD24 cells
[21] = target: T1, human CD24; assay: FACS, CHOK1-hCD24 cells
Procedure: as §2

FACS MFI [1]: 9400
FACS MFI [2]: 1080
EC50 [3]: 2.7 nM
EC50 [4]: 8 nM
Max MFI [4]: 761
EC50 [5]: 5.74 nM
EC50 [6]: 6.54 nM
EC50 [7]: 3 nM
Max MFI [7]: 8820
FACS MFI [8]: 11800
FACS MFI [9]: 5210
EC50 [10]: 3.43 nM
Max MFI [10]: 48400
EC50 [11]: 5.08 nM
EC50 [12]: 8.26 nM
EC50 [13]: 6.61 nM
Max MFI [13]: 5900
FACS MFI [14]: 6560
EC50 [15]: 3.25 nM
Max MFI [15]: 34100
EC50 [16]: 4.2 nM
FACS MFI [16]: 6690
Max MFI [16]: 10800
EC50 [17]: 3.5 nM
EC50 [18]: 7.37 nM
EC50 (nM), phagocytosis against HT-29 cells [19]: 2.1 nM
Max phagocytosis Index (%), phagocytosis against HT-29 cells [19]: 68.2%
EC50 [20]: 8.67 nM
EC50 [21]: 3.63 nM
Max MFI [21]: 29700
B1: SN3 (antibody, V domains shown)
VH: QVQLKESGPGLVAPSQSLSITCTVSGFSLTSYGVHWVRQPPGKGLEWLGVIWAGGSTNYNSALMSRLSISKDNSKSQVFLKMNSLQTDDTAMYYCAVYYGYLFFAYWGQGTLVTVSA
VL: ENVLTQSPAIMSASPGEKVTMTCSASSSVSYMHWYQQKSTTSPKLWIYDTSKLASGVPGRFSGSGSGNSYSLTISSMEAEDVATYYCFQGSGYPLTFGGGTKLEIK
